These results are taken from IntAct's records for PubMed 28007894.

B1: Serine/threonine/tyrosine-interacting protein (Homo sapiens), Q8WUJ0 (parent)
chain: MEDVKLEFPSLPQCKEDAEEWTYPMRREMQEILPGLFLGPYSSAMKSKLPVLQKHGITHIICIRQNIEANFIKPNFQQLFRYLVLDIADNPVENIIRFFPMTKEFIDGSLQMGGKVLVHGNAGISRSAAFVIAYIMETFGMKYRDAFAYVQERRFCINPNAGFVHQLQEYEAIYLAKLTIQMMSPLQIERSLSVHSGTTGSLKRTHEEEDDFGTMQVATAQNG

This assay covers variants of B1. To be noted: with FBXW7, Q969H0-1.
Chain of FBXW7, Q969H0-1 (Q969H0 whole entry): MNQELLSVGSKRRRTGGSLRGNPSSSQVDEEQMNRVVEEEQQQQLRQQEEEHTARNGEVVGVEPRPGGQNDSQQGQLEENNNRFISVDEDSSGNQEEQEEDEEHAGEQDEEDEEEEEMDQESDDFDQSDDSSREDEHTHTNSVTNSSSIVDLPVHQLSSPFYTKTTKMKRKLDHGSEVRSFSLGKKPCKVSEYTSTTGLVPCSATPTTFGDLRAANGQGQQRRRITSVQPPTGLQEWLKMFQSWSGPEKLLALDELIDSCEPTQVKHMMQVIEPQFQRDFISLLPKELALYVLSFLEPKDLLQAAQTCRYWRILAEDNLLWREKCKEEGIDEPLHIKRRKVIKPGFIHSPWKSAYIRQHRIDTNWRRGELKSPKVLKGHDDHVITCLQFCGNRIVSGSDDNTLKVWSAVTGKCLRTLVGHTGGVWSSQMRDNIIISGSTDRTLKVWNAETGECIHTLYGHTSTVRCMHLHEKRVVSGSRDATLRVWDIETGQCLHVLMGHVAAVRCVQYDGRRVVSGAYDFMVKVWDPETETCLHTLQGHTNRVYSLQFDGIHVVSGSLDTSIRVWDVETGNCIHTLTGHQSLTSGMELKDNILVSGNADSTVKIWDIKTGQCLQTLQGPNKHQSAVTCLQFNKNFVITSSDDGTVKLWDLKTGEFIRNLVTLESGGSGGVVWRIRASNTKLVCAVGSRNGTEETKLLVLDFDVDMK
Regarding MEDVKLEFPSLPQCKEDAEEWTYPMRREMQEILPGLFLGPYSSAMKSKLPVLQKHGITHIICIRQNIEANFIKPNFQQLFRYLVLDIADNPVENIIRFFPMTKEFIDGSLQMGGKVLVHCNAGISRSAAFVIAYIMETFGMKYRDAFAYVQERRFCINPNAGFVHQLQEYEAIYLAKLTIQMMSPLQIERSLSVHSGTTGSLKRTHEEEDDFGTMQVATAQNG [G120C], the “effect of a mutation on the interaction” value is reported as “with no effect”.
